Test results as given in publication PMC7803741 (2021).
Where two headings read alike, the source gives them in different places.

How the values were obtained:
Test in all cases: ITC
[1] = biological target: T1, GABAAR-associated protein (GABARAP) (mouse, UniProt Q9DCD6 1-117)
[2] = biological target: T1, GABAAR-associated protein (GABARAP); remark: listed apart in the source
[3] = biological target: LC3A (mouse, UniProt Q91VR7 1-121)
[4] = biological target: GABARAPL2 (mouse, UniProt P60521 1-117)
[5] = biological target: LC3B (mouse, UniProt Q9CQV6 1-120)
[6] = biological target: GABARAP K66E (mouse, UniProt Q9DCD6 1-117, K66E)
[7] = biological target: GABARAP K24E (mouse, UniProt Q9DCD6 1-117, K24E)
[8] = biological target: GABARAP E17A (mouse, UniProt Q9DCD6 1-117, E17A)
GABARAP E17A, sequence (Q9DCD6 whole entry E17A): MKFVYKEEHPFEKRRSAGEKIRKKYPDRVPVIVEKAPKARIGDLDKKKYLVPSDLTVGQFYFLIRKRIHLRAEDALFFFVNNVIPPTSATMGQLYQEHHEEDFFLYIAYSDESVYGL

T1 sequence (Q9DCD6 whole entry): as the sequence (Q9DCD6 whole entry E17A) above, with A17E counted along it
GABARAPL2, sequence (P60521 whole entry): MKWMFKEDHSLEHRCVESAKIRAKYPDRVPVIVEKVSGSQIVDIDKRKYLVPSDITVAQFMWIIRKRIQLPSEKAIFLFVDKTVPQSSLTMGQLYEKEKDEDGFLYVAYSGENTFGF
GABARAP K66E, sequence (Q9DCD6 whole entry K66E): as the sequence (Q9DCD6 whole entry E17A) above, with A17E, K66E counted along it
GABARAP K24E, sequence (Q9DCD6 whole entry K24E): as the sequence (Q9DCD6 whole entry E17A) above, with A17E, K24E counted along it

## PAPTIDIRPRSATIQMNNATHLQERDEEYGYECLDGKDCASFFCCFEDCR (domain or fragment) [GABAA receptor γ2 subunit 375-424]
[1]
  Kd: 5.1 µM

## VEEERVIVSDEEIEEARQKAPLEITEY [AnkB-WR peptide]
[2]
  Kd: > 100 µM

## ERDEEYGYECLDGKDCAS [GABAAR γ2 subunit GIM (GABARAP interacting motif, 398–415)]
[2]
  Kd: 6.8 µM
[3]
  Kd: > 300 µM
[4]
  Kd: > 200 µM
[5]
  Kd: > 300 µM
[6]
  Kd: 23.6 µM
[7]
  Kd: > 100 µM
[8]
  Kd: 6.8 µM

## PEDDWTRFSSEEIREARQAAASHAPS [AnkG-ER peptide]
[2]
  Kd: 0.007 µM

## PEDDWTEFSSEEIREARQAAASHAPS [AnkG-WT peptide]
[2]
  Kd: 0.007 µM
